# Experimental data published in US20110236325A1, “METHODS TO TREAT OR PREVENT A SKIN CONDITION USING A NELL1 PEPTIDE” (NellOne Therapeutics, Inc., priority 2010, published 2011).
# B1: Nell 1: Full-length human recombinant NELL1 protein (isoform 1, SEQ ID NO: 2), expressed in a wheat germ cell-free translation system, obtained from Abnova (protein, listed as Homo sapiens)
# chain: MPMDLILVVWFCVCTARTVVGFGMDPDLQMDIVTELDLVNTTLGVAQVSGMHNASKAFLFQDIEREIHAAPHVSEKLIQLFRNKSEFTILATVQQKPSTSGVILSIRELEHSYFELESSGLRDEIRYHYIHNGKPRTEALPYRMADGQWHKVALSVSASHLLLHVDCNRIYERVIDPPDTNLPPGINLWLGQRNQKHGLFKGIIQDGKIIFMPNGYITQCPNLNHTCPTCSDFLSLVQGIMDLQELLAKMTAKLNYAETRLSQLENCHCEKTCQVSGLLYRDQDSWVDGDHCRNCTCKSGAVECRRMSCPPLNCSPDSLPVHIAGQCCKVCRPKCIYGGKVLAEGQRILTKSCRECRGGVLVKITEMCPPLNCSEKDHILPENQCCRVCRGHNFCAEGPKCGENSECKNWNTKATCECKSGYISVQGDSAYCEDIDECAAKMHYCHANTVCVNLPGLYRCDCVPGYIRVDDFSCTEHDECGSGQHNCDENAICTNTVQGHSCTCKPGYVGNGTICRAFCEEGCRYGGTCVAPNKCVCPSGFTGSHCEKDIDECSEGIIECHNHSRCVNLPGWYHCECRSGFHDDGTYSLSGESCIDIDECALRTHTCWNDSACINLAGGFDCLCPSGPSCSGDCPHEGGLKHNGQVWTLKEDRCSVCSCKDGKIFCRRTACDCQNPSADLFCCPECDTRVTSQCLDQNGHKLYRSGDNWTHSCQQCRCLEGEVDCWPLTCPNLSCEYTAILEGECCPRCVSDPCLADNITYDIRKTCLDSYGVSRLSGSVWTMAGSPCTTCKCKNGRVCCSVDFECLQNN
# Tests used:
# [1] = tested on: EFT-400 tissues; test: Sunburned cell counts in UV-irradiated EpiDerm-FT (EFT-400) skin model tissues, H&E histology; assay type: cell-based, human; details: for sunburned cell formation: 200 mJ/cm2 UVB/29.94 mW/cm2 UVA, 24 hour post irradiation
# Protocol: Packaged tissues were stored at 4° C. overnight and then re-equilibrated in EFT-400-ASY medium overnight prior to the start of experiments. The sample size was n=3 for each treatment group in the gene expression experiments; and n=6 (two independent experiments of n=3) for the sunburned cell counts.
# Treated and untreated tissues were exposed to UV irradiation with 200 mJ/cm^2UVB/29.94 mW/cm^2UVA simulated solar UV light (Honle-500 solar lamp).
# At the conclusion of the 24 hour post-irradiation period, EFT-400 tissues were fixed in 10% formalin for 2 hours at room temperature (two independent experiments with n=3). Formalin fixed tissues were embedded in paraffin and 6 micron slices were stained with haematoxylin and eosin (H&E).
# [2] = tested on: EFT-400 tissues; test: Gene expression by quantitative PCR custom array in EFT-400 tissues with or without UV irradiation; details: for AVG Ct ACTB (housekeeping gene) / AVG Ct AQP3 / AVG Ct BCL2L1 / AVG Ct COL1A1 / AVG Ct COL4A2 / AVG Ct COL5A1 / AVG Ct COL6A1 / AVG Ct COL6A2 / AVG Ct COL7A1 / AVG Ct COL8A1 / AVG Ct COL11A1 / AVG Ct COL12A1 / AVG Ct COL14A1 / AVG Ct COL15A1 / AVG Ct COL16A1 / AVG Ct DSG1 / AVG Ct ERCC1 / AVG Ct FN1 / AVG Ct GAPDH (housekeeping gene) / AVG Ct GDF15 / AVG Ct GSTM3 / AVG Ct HSPA8 / AVG Ct IL1A / AVG Ct IL1B / AVG Ct IL8 / AVG Ct KAL1 / AVG Ct KRT16 / AVG Ct LAMA1 / AVG Ct LAMA2 / AVG Ct LAMA3 / AVG Ct LAMA5 / AVG Ct LAMB1 / AVG Ct LAMB3 / AVG Ct LAMC1 / AVG Ct MMP1 / AVG Ct MMP2 / AVG Ct MT2A / AVG Ct PCNA / AVG Ct RPL13A (housekeeping gene) / AVG Ct SIRT1 / AVG Ct TGFBI / AVG Ct THBS3 / AVG Ct TNC / AVG Ct VTN: No UV
# Protocol: EpiDerm-FT™ (EFT-400) tissues were produced and packaged in the MatTek Corporation GMP tissue culture production laboratories following standard procedures. Packaged tissues were stored at 4° C. overnight and then re-equilibrated in EFT-400-ASY medium overnight prior to the start of experiments. The sample size was n=3 for each treatment group in the gene expression experiments; and n=6 (two independent experiments of n=3) for the sunburned cell counts.
# Total RNA was isolated from the EFT-400 tissues (RNAqueous kit, Ambion) (n=3) and utilized for gene expression analysis by quantitative PCR on an SABioscience custom array containing 42 Human Extracellular Matrix (ECM) and Adhesion Molecules RT^2 Profiler™ PCR Array, stress and toxicity genes whose expression, based on MatTek data, are known to be dramatically altered by UV-protective compounds on UV damaged skin. […] Further, there were three internal control spots on the array that corresponded to human genomic DNA contamination (HGDC), positive PCR control (PPC), and reverse transcription control (RTC).
molecule,measurement,setting,value
B1,sunburned cell formation,[1]; 100 ng/ml,decrease in sunburned cell formation
same,sunburned cell formation,[1]; 150 ng/ml,did not decrease sunburned cell formation to the same extent as 100 ng/ml NELL1
same,number of sunburned cells as compared to UV-only controls,"[1]; pre-treatment 30 minutes prior to UV, continued 24 hours post-irradiation",statistically significant reduction in the number of sunburned cells
same,"activity in producing the observed effects (sunburned cells, gene expression)","[2]; NELL1 protein at 100 ng/ml, genistein at 50 μM",most active in producing the observed effects
same,AVG Ct ACTB (housekeeping gene),[2]; 100 ng/ml Nell 1,18
same,AVG Ct AQP3,[2]; 100 ng/ml Nell 1,23.05
same,AVG Ct BCL2L1,[2]; 100 ng/ml Nell 1,24.03
same,AVG Ct COL1A1,[2]; 100 ng/ml Nell 1,17.82
same,AVG Ct COL4A2,[2]; 100 ng/ml Nell 1,22.01
same,AVG Ct COL5A1,[2]; 100 ng/ml Nell 1,22.36
same,AVG Ct COL6A1,[2]; 100 ng/ml Nell 1,18.82
same,AVG Ct COL6A2,[2]; 100 ng/ml Nell 1,19.33
same,AVG Ct COL7A1,[2]; 100 ng/ml Nell 1,25.75
same,AVG Ct COL8A1,[2]; 100 ng/ml Nell 1,27.28
same,AVG Ct COL11A1,[2]; 100 ng/ml Nell 1,26.77
same,AVG Ct COL12A1,[2]; 100 ng/ml Nell 1,24.14
same,AVG Ct COL14A1,[2]; 100 ng/ml Nell 1,25.88
same,AVG Ct COL15A1,[2]; 100 ng/ml Nell 1,24.72
same,AVG Ct COL16A1,[2]; 100 ng/ml Nell 1,23.78
same,AVG Ct DSG1,[2]; 100 ng/ml Nell 1,20.11
same,AVG Ct ERCC1,[2]; 100 ng/ml Nell 1,23.72
same,AVG Ct FN1,[2]; 100 ng/ml Nell 1,20.04
same,AVG Ct GAPDH (housekeeping gene),[2]; 100 ng/ml Nell 1,17.83
same,AVG Ct GDF15,[2]; 100 ng/ml Nell 1,23.37
same,AVG Ct GSTM3,[2]; 100 ng/ml Nell 1,29.11
same,AVG Ct HSPA8,[2]; 100 ng/ml Nell 1,19.83
same,AVG Ct IL1A,[2]; 100 ng/ml Nell 1,25.17
same,AVG Ct IL1B,[2]; 100 ng/ml Nell 1,28.25
same,AVG Ct IL8,[2]; 100 ng/ml Nell 1,20.41
same,AVG Ct KAL1,[2]; 100 ng/ml Nell 1,31.6
same,AVG Ct KRT16,[2]; 100 ng/ml Nell 1,16.15
same,AVG Ct LAMA1,[2]; 100 ng/ml Nell 1,28.71
same,AVG Ct LAMA2,[2]; 100 ng/ml Nell 1,24.38
same,AVG Ct LAMA3,[2]; 100 ng/ml Nell 1,23.37
same,AVG Ct LAMA5,[2]; 100 ng/ml Nell 1,26.73
same,AVG Ct LAMB1,[2]; 100 ng/ml Nell 1,22.69
same,AVG Ct LAMB3,[2]; 100 ng/ml Nell 1,24.73
same,AVG Ct LAMC1,[2]; 100 ng/ml Nell 1,22.76
same,AVG Ct MMP1,[2]; 100 ng/ml Nell 1,20.04
same,AVG Ct MMP2,[2]; 100 ng/ml Nell 1,18.98
same,AVG Ct MT2A,[2]; 100 ng/ml Nell 1,18.43
same,AVG Ct PCNA,[2]; 100 ng/ml Nell 1,23.56
same,AVG Ct RPL13A (housekeeping gene),[2]; 100 ng/ml Nell 1,20.37
same,AVG Ct SIRT1,[2]; 100 ng/ml Nell 1,25.93
same,AVG Ct TGFBI,[2]; 100 ng/ml Nell 1,21.73
same,AVG Ct THBS3,[2]; 100 ng/ml Nell 1,28.69
same,AVG Ct TNC,[2]; 100 ng/ml Nell 1,21.22
same,AVG Ct VTN,[2]; 100 ng/ml Nell 1,32.48
same,AVG Ct ACTB (housekeeping gene),[2]; 150 ng/ml Nell 1,18.54
same,AVG Ct AQP3,[2]; 150 ng/ml Nell 1,23.74
same,AVG Ct BCL2L1,[2]; 150 ng/ml Nell 1,24.48
same,AVG Ct COL1A1,[2]; 150 ng/ml Nell 1,18.8
same,AVG Ct COL4A2,[2]; 150 ng/ml Nell 1,22.92
same,AVG Ct COL5A1,[2]; 150 ng/ml Nell 1,23.36
same,AVG Ct COL6A1,[2]; 150 ng/ml Nell 1,19.6
same,AVG Ct COL6A2,[2]; 150 ng/ml Nell 1,20.05
same,AVG Ct COL7A1,[2]; 150 ng/ml Nell 1,26.73
same,AVG Ct COL8A1,[2]; 150 ng/ml Nell 1,28.22
same,AVG Ct COL11A1,[2]; 150 ng/ml Nell 1,27.51
same,AVG Ct COL12A1,[2]; 150 ng/ml Nell 1,25
same,AVG Ct COL14A1,[2]; 150 ng/ml Nell 1,26.52
same,AVG Ct COL15A1,[2]; 150 ng/ml Nell 1,25.35
same,AVG Ct COL16A1,[2]; 150 ng/ml Nell 1,24.55
same,AVG Ct DSG1,[2]; 150 ng/ml Nell 1,20.36
same,AVG Ct ERCC1,[2]; 150 ng/ml Nell 1,24.07
same,AVG Ct FN1,[2]; 150 ng/ml Nell 1,20.71
same,AVG Ct GAPDH (housekeeping gene),[2]; 150 ng/ml Nell 1,18.02
same,AVG Ct GDF15,[2]; 150 ng/ml Nell 1,23.97
same,AVG Ct GSTM3,[2]; 150 ng/ml Nell 1,29.74
same,AVG Ct HSPA8,[2]; 150 ng/ml Nell 1,20.36
same,AVG Ct IL1A,[2]; 150 ng/ml Nell 1,25.55
same,AVG Ct IL1B,[2]; 150 ng/ml Nell 1,29.2
same,AVG Ct IL8,[2]; 150 ng/ml Nell 1,21.04
same,AVG Ct KAL1,[2]; 150 ng/ml Nell 1,33.03
same,AVG Ct KRT16,[2]; 150 ng/ml Nell 1,16.49
same,AVG Ct LAMA1,[2]; 150 ng/ml Nell 1,29.76
same,AVG Ct LAMA2,[2]; 150 ng/ml Nell 1,25.3
same,AVG Ct LAMA3,[2]; 150 ng/ml Nell 1,24.15
same,AVG Ct LAMA5,[2]; 150 ng/ml Nell 1,27.41
same,AVG Ct LAMB1,[2]; 150 ng/ml Nell 1,23.44
same,AVG Ct LAMB3,[2]; 150 ng/ml Nell 1,25.42
same,AVG Ct LAMC1,[2]; 150 ng/ml Nell 1,23.62
same,AVG Ct MMP1,[2]; 150 ng/ml Nell 1,20.75
same,AVG Ct MMP2,[2]; 150 ng/ml Nell 1,19.62
same,AVG Ct MT2A,[2]; 150 ng/ml Nell 1,18.83
same,AVG Ct PCNA,[2]; 150 ng/ml Nell 1,24.11
same,AVG Ct RPL13A (housekeeping gene),[2]; 150 ng/ml Nell 1,20.81
same,AVG Ct SIRT1,[2]; 150 ng/ml Nell 1,26.67
same,AVG Ct TGFBI,[2]; 150 ng/ml Nell 1,22.16
same,AVG Ct THBS3,[2]; 150 ng/ml Nell 1,29.23
same,AVG Ct TNC,[2]; 150 ng/ml Nell 1,22.04
same,AVG Ct VTN,[2]; 150 ng/ml Nell 1,32.57
same,expression of IL-1β elevated after UV exposure,[2]; UV-irradiated,decrease in the expression
same,expression of IL-8 elevated after UV exposure,[2]; UV-irradiated,decrease in the expression
same,expression of MMP-1 elevated after UV exposure,[2]; UV-irradiated,decrease in the expression
same,levels of AQP3 RNA after UV exposure,[2]; UV-irradiated,increased these levels further
same,UV-elevated levels of AQP3,"[2]; UV-irradiated, 100 ng/ml",further increased the UV-elevated levels of AQP3
